# Measured values from publication PMC8115485 (Nature Communications, 2021).
# Residue numbers refer to the chain shown, from its start. In names and notes the source's numbering stands.
# T1: HisH (Thermotoga maritima, UniProt Q9X0C8, C84S)
# T1 sequence (Q9X0C8 1-201 C84S): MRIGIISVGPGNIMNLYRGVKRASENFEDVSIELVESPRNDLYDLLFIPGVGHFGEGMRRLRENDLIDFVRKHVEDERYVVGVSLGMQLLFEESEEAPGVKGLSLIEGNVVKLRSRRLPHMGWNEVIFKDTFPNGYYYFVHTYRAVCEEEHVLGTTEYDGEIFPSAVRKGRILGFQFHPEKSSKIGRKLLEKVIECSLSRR
# T1 sequence (Q9X0C6 1-253 partner): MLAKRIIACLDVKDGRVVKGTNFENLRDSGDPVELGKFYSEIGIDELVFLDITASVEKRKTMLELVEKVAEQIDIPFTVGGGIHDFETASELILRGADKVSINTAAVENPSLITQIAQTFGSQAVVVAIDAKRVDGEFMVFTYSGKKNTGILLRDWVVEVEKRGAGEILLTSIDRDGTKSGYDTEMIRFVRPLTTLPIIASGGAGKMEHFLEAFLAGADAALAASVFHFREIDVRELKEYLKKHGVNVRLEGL
# T2: HisH (Thermotoga maritima, UniProt Q9X0C8, C84A)
# T2 construct: HisFH-hC84A complex; with HisF
# T2 sequence (Q9X0C8 1-201 C84A): T1 sequence (Q9X0C8 1-201 C84S) with S84A
# T2 sequence (Q9X0C6 1-253 partner): T1 sequence (Q9X0C6 1-253 partner)
# T3: HisH (Thermotoga maritima, UniProt Q9X0C8)
# T3 sequence (Q9X0C8 1-201): T1 sequence (Q9X0C8 1-201 C84S) with S84C
# T3 sequence (Q9X0C6 1-253 partner): T1 sequence (Q9X0C6 1-253 partner)
# T4: HisF (Thermotoga maritima, UniProt Q9X0C6)
# T4 construct: HisF-wt without tag, in the HisFH-hC84A complex; with HisH (hC84A)
# T4 sequence (Q9X0C6 1-253): T1 sequence (Q9X0C6 1-253 partner)
# T4 sequence (Q9X0C8 1-201 C84A partner): T1 sequence (Q9X0C8 1-201 C84S) with S84A
# T5: HisF, cyclase subunit of imidazole glycerol phosphate synthase from Thermotoga maritima, wild type, without … (Thermotoga maritima, UniProt Q9X0C6 1-253)
# T5 construct: HisF of Thermotoga maritima, Uniprot ID Q9X0C6; Crystallised as the HisFH-hC84A complex; also called HisF-wt; source: E. coli, expressed separately; cell lysate combined with that of HisH before the NiNTA column, complex purified (NiNTA, SEC)
# T5 sequence: T1 sequence (Q9X0C6 1-253 partner)
# T6: HisF, cyclase subunit of imidazole glycerol phosphate synthase from Thermotoga maritima, wild type (NMR … (Thermotoga maritima, UniProt Q9X0C6 1-253))
# T6 construct: HisF of Thermotoga maritima, Uniprot ID Q9X0C6; Deuterated and 15N labelled where HisF is observed; also called WT HisF; HisF-wt; source: E. coli BL21-CodonPlus (DE3)-RIL or BL21 Gold (DE3), purified (heat shock, NiNTA, TEV digestion, SEC); not shown: His-tag, N-terminal, cleaved
# T6 sequence: T1 sequence (Q9X0C6 1-253 partner)
# T7: HisF from Thermotoga maritima, F23A mutant (Thermotoga maritima, UniProt Q9X0C6 1-253, fF23A)
# T7 construct: HisF of Thermotoga maritima, Uniprot ID Q9X0C6; also called fF23A; source: E. coli, purified
# T7 sequence (looked up): T1 sequence (Q9X0C6 1-253 partner) with F23A
# T8: HisF from Thermotoga maritima, K19A mutant (Thermotoga maritima, UniProt Q9X0C6 1-253, fK19A)
# T8 construct: HisF of Thermotoga maritima, Uniprot ID Q9X0C6; also called fK19A; source: E. coli, purified
# T8 sequence (looked up): T1 sequence (Q9X0C6 1-253 partner) with K19A
# T9: HisF from Thermotoga maritima, D98E mutant (Thermotoga maritima, UniProt Q9X0C6 1-253, fD98E)
# T9 construct: HisF of Thermotoga maritima, Uniprot ID Q9X0C6; also called fD98E; HisF-D98E; source: E. coli, purified
# T9 sequence (looked up): T1 sequence (Q9X0C6 1-253 partner) with D98E
# T10: HisF from Thermotoga maritima, V48A mutant (Thermotoga maritima, UniProt Q9X0C6 1-253, fV48A)
# T10 construct: HisF of Thermotoga maritima, Uniprot ID Q9X0C6; also called fV48A; source: E. coli, purified
# T10 sequence (looked up): T1 sequence (Q9X0C6 1-253 partner) with V48A
# B1: HisH, glutaminase subunit of imidazole glycerol phosphate synthase from Thermotoga maritima, C84A mutant (crystallisation construct) (enzyme)
# chain: T1 sequence (Q9X0C8 1-201 C84S) with S84A
# notes: HisH of Thermotoga maritima, Uniprot ID Q9X0C8; also called hC84A; HisH-C84A; source: E. coli, expressed separately; cell lysate combined with that of HisF before the NiNTA column, complex purified (NiNTA, SEC)
# B2: HisH from Thermotoga maritima, C84A mutant (NMR samples) (enzyme, UniProt Q9X0C8 1-201, looked up)
# chain: T1 sequence (Q9X0C8 1-201 C84S) with S84A
# notes: HisH of Thermotoga maritima, Uniprot ID Q9X0C8; probably the same construct as m2, kept apart because the state of the tag is told only for the labelled proteins; also called hC84A; source: E. coli BL21-CodonPlus (DE3)-RIL, purified (heat shock, NiNTA, TEV digestion, SEC); not shown: His-tag, N-terminal, cleaved
# B3: HisH, glutaminase subunit of imidazole glycerol phosphate synthase from Thermotoga maritima, C84S mutant (enzyme, UniProt Q9X0C8 1-201, looked up)
# chain: T1 sequence (Q9X0C8 1-201 C84S)
# notes: HisH of Thermotoga maritima, Uniprot ID Q9X0C8; Deuterated, ILMVA methyl labelled or histidine ring-13C2 labelled for NMR; also called hC84S; HisH-C84S; source: E. coli BL21-CodonPlus (DE3)-RIL, purified (heat shock, NiNTA, TEV digestion, SEC); not shown: His-tag, N-terminal, cleaved
# Assays:
# HisH [1] = molecular target: T1, HisH; experiment: NMR titration in the presence of ProFAR; type: binding; design: HisFH-hC84S complex; with HisF
# HisH [2] = molecular target: T2, HisH; experiment: X-ray crystal structure at […] Å; type: binding
# HisH [3] = molecular target: T3, HisH; experiment: NMR titration (methyl TROSY); type: binding; design: WT HisFH complex; with HisF
# HisH [4] = molecular target: T1, HisH; experiment: biochemical
# HisF = molecular target: T4, HisF; experiment: X-ray crystal structure at […] Å; NMR titration; glutaminase activation; type: binding
# [5] = molecular target: T5, HisF, cyclase subunit of imidazole …; experiment: crystal structure; HisFH-hC84A complex at 30 mg/ml in 10 mM Tris-HCl pH 8.0, 100 mM NaCl; hanging drop, 18 °C, 10 mM L-glutamine, 10 mM ProFAR added by soaking; 2.06 Å; three HisFH complexes in the asymmetric unit; settings: both partners purified
# [6] = molecular target: T6, HisF, cyclase subunit of imidazole …; experiment: NMR spectra (TROSY, methyl-TROSY) of the complex reconstituted by SEC; HisF and HisH combined at a 1.3/1 ratio after TEV digestion, free HisF removed on Superdex 75 in NMR buffer (50 mM NaCl, 20 mM HEPES pH 7.3, 1 mM DTT); spectra at 30 °C, 50-150 µM protein; settings: both partners purified
# [7] = molecular target: T7, HisF from Thermotoga maritima, F23A …; experiment: as above; settings: both partners purified
# [8] = molecular target: T8, HisF from Thermotoga maritima, K19A …; experiment: as above; settings: both partners purified
# [9] = molecular target: T9, HisF from Thermotoga maritima, D98E …; experiment: as above; settings: both partners purified
# [10] = molecular target: T10, HisF from Thermotoga maritima, V48A …; experiment: as above; settings: both partners purified
molecule,measurement,setting,value
NC(=O)NC[C@H](N)C(=O)O [Albizziin],NMR titration in the presence of ProFAR,HisH [1],for the HisFH–hC84S mutant the active conformation is clearly visible
NC(=O)CC[C@H](N)C(=O)O [Gln],X-ray crystal structure at 2.06 Å,HisH [2],The asymmetric unit contains three HisFH complexes
same,Kd,HisH [3],1300 ± 100 µM
same,Kd,HisH [4],1700 ± 100 µM
NC(=O)c1ncn([C@@H]2O[C@H](COP(=O)(O)O)[C@@H](O)[C@H]2O)c1N=CN[C@@H]1O[C@H](COP(=O)(O)O)[C@@H](O)[C@H]1O [ProFAR],X-ray crystal structure at 2.06 Å; NMR titration; glutaminase activation,HisF,the HisF active site shows unambiguous electron density for a ProFAR molecule
B1,binding result,[5],binds
B2,binding result,[6],binds
B3,binding result,[7],binds
same,binding result,[8],binds
same,binding result,[6],binds
same,binding result,[9],binds
same,binding result,[10],binds
